Experimental data published in IntAct's records for PubMed 25910212.

What was measured:
[1] = biological target: cap2_human CAP2 (UniProt P40123)
[2] = biological target: cof2_human CFL2 (UniProt Q9Y281)
[3] = biological target: cap2_human CAP2 (UniProt P40123); remark: listed apart in the source
[4] = biological target: KRT40 (UniProt Q6A162)
[5] = biological target: tpp2_human TPP2 (UniProt P29144)
[6] = biological target: CAGE1, Q8TC20-4
[7] = biological target: syce1_human SYCE1 (UniProt Q8N0S2)
Chain of syce1_human SYCE1 (Q8N0S2 whole entry): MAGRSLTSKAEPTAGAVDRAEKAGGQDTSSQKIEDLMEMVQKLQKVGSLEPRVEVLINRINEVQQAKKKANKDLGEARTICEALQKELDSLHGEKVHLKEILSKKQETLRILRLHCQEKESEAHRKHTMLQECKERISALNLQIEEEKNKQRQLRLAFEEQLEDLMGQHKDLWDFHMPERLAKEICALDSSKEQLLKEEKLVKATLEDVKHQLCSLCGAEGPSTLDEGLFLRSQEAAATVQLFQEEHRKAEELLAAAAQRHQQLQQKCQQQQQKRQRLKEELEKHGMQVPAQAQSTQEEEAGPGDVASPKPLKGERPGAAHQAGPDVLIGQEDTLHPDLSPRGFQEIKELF

[8] = biological target: TNNT1, P13805-3
Chain of TNNT1, P13805-3 (P13805 other isoform, or with tags, fused parts or gaps): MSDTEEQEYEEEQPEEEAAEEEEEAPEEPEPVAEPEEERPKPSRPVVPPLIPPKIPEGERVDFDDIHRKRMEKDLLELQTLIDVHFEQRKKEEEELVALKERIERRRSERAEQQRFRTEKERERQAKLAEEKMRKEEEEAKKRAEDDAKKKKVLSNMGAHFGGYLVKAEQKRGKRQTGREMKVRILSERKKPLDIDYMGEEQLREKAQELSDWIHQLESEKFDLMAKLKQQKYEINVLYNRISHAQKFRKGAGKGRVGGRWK

[9] = biological target: ifit3_human IFIT3 (UniProt O14879)
Chain of ifit3_human IFIT3 (O14879 whole entry): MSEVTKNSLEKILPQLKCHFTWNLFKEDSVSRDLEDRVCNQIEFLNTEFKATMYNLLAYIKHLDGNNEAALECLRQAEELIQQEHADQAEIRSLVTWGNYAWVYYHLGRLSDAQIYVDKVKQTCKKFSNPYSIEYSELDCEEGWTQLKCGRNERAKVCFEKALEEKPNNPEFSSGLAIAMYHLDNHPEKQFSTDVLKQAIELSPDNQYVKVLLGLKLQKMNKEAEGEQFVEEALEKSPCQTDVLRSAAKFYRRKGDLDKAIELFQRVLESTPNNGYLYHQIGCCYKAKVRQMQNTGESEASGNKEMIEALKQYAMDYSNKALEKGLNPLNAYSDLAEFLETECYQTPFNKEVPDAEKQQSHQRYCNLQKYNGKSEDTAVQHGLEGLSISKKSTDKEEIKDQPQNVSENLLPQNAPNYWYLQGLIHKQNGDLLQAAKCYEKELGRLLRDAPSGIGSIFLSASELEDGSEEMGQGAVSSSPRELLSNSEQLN

[10] = biological target: CAGE1, Q8TC20-4; remark: listed apart in the source
[11] = biological target: ifit3_human IFIT3 (UniProt O14879); remark: listed apart in the source
[12] = biological target: tfpt_human TFPT (UniProt P0C1Z6)
Chain of tfpt_human TFPT (P0C1Z6 whole entry): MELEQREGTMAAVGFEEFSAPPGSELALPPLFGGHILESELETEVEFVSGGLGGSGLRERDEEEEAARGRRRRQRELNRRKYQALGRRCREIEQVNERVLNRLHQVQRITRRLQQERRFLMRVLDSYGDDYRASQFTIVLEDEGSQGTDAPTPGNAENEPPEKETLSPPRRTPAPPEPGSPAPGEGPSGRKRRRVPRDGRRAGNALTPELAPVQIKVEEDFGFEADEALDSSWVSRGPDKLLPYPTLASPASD

[13] = biological target: goga2_human GOLGA2 (UniProt Q08379)
Chain of goga2_human GOLGA2 (Q08379 whole entry): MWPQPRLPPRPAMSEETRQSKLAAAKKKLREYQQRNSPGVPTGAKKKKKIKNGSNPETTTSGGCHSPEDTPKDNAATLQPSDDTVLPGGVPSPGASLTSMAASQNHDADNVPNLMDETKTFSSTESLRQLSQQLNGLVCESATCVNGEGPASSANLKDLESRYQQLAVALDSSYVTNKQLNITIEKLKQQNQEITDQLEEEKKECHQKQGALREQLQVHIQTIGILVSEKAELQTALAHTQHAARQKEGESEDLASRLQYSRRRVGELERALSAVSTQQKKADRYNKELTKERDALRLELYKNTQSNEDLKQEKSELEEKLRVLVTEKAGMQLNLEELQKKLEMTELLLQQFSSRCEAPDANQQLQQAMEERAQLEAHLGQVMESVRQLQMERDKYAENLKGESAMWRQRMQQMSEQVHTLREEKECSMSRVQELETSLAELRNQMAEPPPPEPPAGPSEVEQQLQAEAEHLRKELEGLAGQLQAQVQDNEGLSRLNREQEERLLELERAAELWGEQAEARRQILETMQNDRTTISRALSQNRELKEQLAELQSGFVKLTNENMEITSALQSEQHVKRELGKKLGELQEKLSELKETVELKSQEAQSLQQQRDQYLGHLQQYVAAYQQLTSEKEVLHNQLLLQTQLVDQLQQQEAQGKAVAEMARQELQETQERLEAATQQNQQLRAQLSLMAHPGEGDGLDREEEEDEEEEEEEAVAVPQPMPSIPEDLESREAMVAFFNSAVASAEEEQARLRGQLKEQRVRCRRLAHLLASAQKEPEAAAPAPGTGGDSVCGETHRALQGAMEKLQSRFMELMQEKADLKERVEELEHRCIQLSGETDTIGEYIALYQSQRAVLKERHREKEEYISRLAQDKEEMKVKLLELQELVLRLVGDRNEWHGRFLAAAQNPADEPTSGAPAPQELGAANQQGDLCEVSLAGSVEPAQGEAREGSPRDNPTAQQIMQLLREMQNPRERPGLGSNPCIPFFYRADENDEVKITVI

[14] = biological target: md1l1_human MAD1L1 (UniProt Q9Y6D9)
Chain of md1l1_human MAD1L1 (Q9Y6D9 whole entry): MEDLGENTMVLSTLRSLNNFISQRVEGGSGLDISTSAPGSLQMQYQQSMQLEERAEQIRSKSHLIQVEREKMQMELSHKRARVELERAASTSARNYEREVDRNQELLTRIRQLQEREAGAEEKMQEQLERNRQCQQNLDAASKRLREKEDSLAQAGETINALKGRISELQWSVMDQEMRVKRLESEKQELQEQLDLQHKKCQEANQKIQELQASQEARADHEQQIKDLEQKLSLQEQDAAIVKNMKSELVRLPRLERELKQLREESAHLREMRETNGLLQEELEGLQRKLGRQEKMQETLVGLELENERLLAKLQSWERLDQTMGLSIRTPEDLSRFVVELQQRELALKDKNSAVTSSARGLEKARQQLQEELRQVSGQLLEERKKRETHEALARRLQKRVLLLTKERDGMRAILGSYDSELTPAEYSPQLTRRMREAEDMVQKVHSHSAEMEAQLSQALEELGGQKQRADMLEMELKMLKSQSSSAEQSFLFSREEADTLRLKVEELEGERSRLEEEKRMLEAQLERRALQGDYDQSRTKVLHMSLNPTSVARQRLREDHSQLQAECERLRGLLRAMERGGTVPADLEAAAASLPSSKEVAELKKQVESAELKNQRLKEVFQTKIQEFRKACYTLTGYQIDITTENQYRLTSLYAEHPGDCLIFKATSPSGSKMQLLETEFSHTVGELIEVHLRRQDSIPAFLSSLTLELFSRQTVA

[15] = biological target: kxdl1_human KXD1 (UniProt Q9BQD3)
Chain of kxdl1_human KXD1 (Q9BQD3 whole entry): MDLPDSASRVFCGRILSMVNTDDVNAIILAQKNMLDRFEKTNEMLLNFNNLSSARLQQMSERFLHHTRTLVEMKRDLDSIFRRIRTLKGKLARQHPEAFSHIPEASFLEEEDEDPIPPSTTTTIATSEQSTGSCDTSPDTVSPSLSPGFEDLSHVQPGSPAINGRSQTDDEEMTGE

[16] = biological target: syce1_human SYCE1 (UniProt Q8N0S2); remark: listed apart in the source
[17] = biological target: MTUS2, Q5JR59-3
Chain of MTUS2, Q5JR59-3 (Q5JR59 other isoform, or with tags, fused parts or gaps): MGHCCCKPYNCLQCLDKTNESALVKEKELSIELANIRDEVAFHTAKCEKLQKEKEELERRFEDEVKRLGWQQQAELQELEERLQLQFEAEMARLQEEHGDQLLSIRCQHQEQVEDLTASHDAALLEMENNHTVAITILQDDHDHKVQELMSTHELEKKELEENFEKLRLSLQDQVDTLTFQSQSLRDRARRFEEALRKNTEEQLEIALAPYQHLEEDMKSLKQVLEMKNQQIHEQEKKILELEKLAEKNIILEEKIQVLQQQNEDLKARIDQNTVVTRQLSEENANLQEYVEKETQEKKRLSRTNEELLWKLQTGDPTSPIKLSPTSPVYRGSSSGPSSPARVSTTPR

Chain of Tropomyosin alpha-1 chain (Homo sapiens), P09493-10 D175N (P09493 other isoform, or with tags, fused parts or gaps D175N): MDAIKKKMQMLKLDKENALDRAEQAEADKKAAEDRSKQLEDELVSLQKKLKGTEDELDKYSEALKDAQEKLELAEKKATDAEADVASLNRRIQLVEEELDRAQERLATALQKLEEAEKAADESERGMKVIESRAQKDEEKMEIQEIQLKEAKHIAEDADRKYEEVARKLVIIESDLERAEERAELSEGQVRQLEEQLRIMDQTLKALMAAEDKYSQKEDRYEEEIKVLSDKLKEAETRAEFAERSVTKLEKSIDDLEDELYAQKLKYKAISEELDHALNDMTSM
Chain of Tropomyosin alpha-1 chain (Homo sapiens), P09493-10 V95A (P09493 other isoform, or with tags, fused parts or gaps V95A): as the sequence (P09493 other isoform, or with tags, fused parts or gaps D175N) above
Chain of CAGE1, Q8TC20-4 (Q8TC20 other isoform, or with tags, fused parts or gaps): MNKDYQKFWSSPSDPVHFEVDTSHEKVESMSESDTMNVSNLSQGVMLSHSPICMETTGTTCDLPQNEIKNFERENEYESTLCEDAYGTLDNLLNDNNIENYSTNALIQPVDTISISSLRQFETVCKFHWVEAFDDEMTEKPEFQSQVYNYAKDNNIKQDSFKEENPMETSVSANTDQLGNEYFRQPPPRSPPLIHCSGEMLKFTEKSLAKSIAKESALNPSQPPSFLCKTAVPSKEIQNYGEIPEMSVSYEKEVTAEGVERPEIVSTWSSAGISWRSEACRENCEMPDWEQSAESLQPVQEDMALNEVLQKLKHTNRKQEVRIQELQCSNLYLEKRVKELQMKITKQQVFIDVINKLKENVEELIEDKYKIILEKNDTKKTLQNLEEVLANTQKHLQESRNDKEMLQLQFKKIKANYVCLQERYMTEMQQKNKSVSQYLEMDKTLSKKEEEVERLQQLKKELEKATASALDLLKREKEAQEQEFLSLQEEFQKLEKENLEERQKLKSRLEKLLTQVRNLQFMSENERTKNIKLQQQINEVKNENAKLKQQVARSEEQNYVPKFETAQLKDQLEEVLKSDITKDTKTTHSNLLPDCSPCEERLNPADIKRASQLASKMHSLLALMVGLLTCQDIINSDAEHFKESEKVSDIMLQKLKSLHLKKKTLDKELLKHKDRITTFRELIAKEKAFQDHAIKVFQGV
Chain of Cytochrome c (Homo sapiens), P99999 G42S (P99999 whole entry G42S): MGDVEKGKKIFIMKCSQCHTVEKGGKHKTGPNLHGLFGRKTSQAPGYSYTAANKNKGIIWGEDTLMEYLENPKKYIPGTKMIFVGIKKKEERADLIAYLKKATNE

effect of a mutation on the interaction [7] | effect of a mutation on the interaction [8] | effect of a mutation on the interaction [11] | effect of a mutation on the interaction [12] | effect of a mutation on the interaction [13] | effect of a mutation on the interaction [14] | effect of a mutation on the interaction [15] | Substance | effect of a mutation on the interaction [10] | also measured
 |  |  |  |  |  |  | Actin, cytoplasmic 1 (Homo sapiens) (from UniProt P60709) R183W |  | effect of a mutation on the interaction [1]: with no effect; effect of a mutation on the interaction [2]: with no effect; effect of a mutation on the interaction [3]: causing an interaction
 |  |  |  |  |  |  | Cytochrome c (Homo sapiens), P99999 G42S |  | effect of a mutation on the interaction [4]: with no effect
 |  |  |  |  |  |  | DNA polymerase beta (Homo sapiens) (from UniProt P06746) R137Q |  | effect of a mutation on the interaction [5]: with no effect
with no effect | with no effect | with no effect | with no effect | with no effect | with no effect | with no effect | Tropomyosin alpha-1 chain (Homo sapiens), P09493-10 D175N | with no effect | effect of a mutation on the interaction [6]: causing an interaction; effect of a mutation on the interaction [9]: causing an interaction
disrupting interaction strength | with no effect | with no effect | with no effect | disrupting interaction strength | with no effect | with no effect | Tropomyosin alpha-1 chain (Homo sapiens), P09493-10 V95A | with no effect | effect of a mutation on the interaction [16]: with no effect
 |  |  |  |  |  |  | Zinc finger protein 624 (Homo sapiens), Q9P2J8 K135N |  | effect of a mutation on the interaction [17]: with no effect
